Measured values from publication PMC9239237, “Salmonella Facilitates Iron Acquisition through UMPylation of Ferric Uptake Regulator” (mBio, 2022).

T1: Fur (native, not UMPylated) (Escherichia coli K-12 substrain MG1655, UniProt P0A9A9 1-148)
T1 sequence: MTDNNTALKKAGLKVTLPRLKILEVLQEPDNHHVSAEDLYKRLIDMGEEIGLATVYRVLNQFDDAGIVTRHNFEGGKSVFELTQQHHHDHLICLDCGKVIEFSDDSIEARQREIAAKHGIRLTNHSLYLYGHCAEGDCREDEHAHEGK

B1: E. coli Fur (ferric uptake regulator) purified from ydiU knockout E. coli, without UMPylation (natural protein, UniProt P0A9A9 1-148, looked up)
chain: T1 sequence
notes: Ferric uptake regulator Fur, E. coli K-12 substrain MG1655; fur gene amplified from genomic DNA and cloned into pGL01 (modified pET15b with a PPase cleavage site); also called Fur^dYdiU; native Fur; source: E. coli BL21(DE3) ydiU knockout strain, purified (Ni-NTA, His tag removed by PPase, Superdex 200)
B2: Fur box DNA (dsDNA)
DNA 1: GATAATGATAATGATAATGATAATGATAATGA
DNA 2: TCATTATCATTATCATTATCATTATCATTATC

Assays:
[1] = target: the molecule itself; assay: SEC; 100 ug protein on a Superdex 200 column; a 53-kDa protein and a 22-kDa protein run under the same conditions as controls
[2] = target: T1, Fur (native, not UMPylated); assay: EMSA; shift at Fur:DNA molar ratio above 1; no metal addition stated; DNA annealed in 10 mM Tris-HCl pH 7.5, 150 mM NaCl; binding buffer not stated; 20 nM DNA, 37 C 10 min (Methods) vs 10 nmol DNA, 30 C 10 min (Fig. 4 legend); 6%; details: protein: recombinant; tags: His tag removed with PPase (pGL01); chain copies: 2; blunt

Row | Binder | stoichiometry N [1] | binding result [2]
1 | B1 | 2 | 
2 | B2 |  | binds
